# Results: PMC7352323, “Regulation of Actin Filament Length by Muscle Isoforms of Tropomyosin and Cofilin” (International Journal of Molecular Sciences, 2020)
# How the values were obtained:
# Settings in all cases: both partners purified
# [1] = target: T1, F-actin (actin isolated from rabbit pectoral muscle, polymerised) (rabbit, UniProt P68135 1-377); experiment: co-sedimentation; 0-10 µM cofilin-2 with 3 µM F-actin alone or initially saturated with 1 µM Tpm1.1 or Tpm3.12, 20 min at room temperature; 100 mM NaCl, 2 mM MgCl2, 1 mM DTT, pH 7.5; apparent Kapp from the Hill equation, K0 and ω from the McGhee and von Hippel linear lattice model
# [2] = target: T2, F-actin initially saturated with Tpm3.12 (rabbit | human, UniProt P68135 1-377; P06753 1-285); experiment: as above
# [3] = target: T3, F-actin initially saturated with Tpm1.1 (rabbit | human, UniProt P68135 1-377; P09493 1-284); experiment: as above
# [4] = target: T1, F-actin (actin isolated from rabbit …); experiment: co-sedimentation; dissociation of tropomyosin from the filament by cofilin-2: 3 µM F-actin, 1 µM Tpm1.1 or Tpm3.12, 0-10 µM cofilin-2; tropomyosin/actin densitometric ratio against cofilin-2/actin molar ratio, fit to a modified Hill equation; same gels as for cofilin-2 binding in the presence of tropomyosin
# [5] = target: T1, F-actin (actin isolated from rabbit …); experiment: co-sedimentation; 0-10 µM cofilin-2 with 3 µM F-actin alone or initially saturated with 1 µM Tpm1.1 or Tpm3.12, 20 min at room temperature; 100 mM NaCl, 2 mM MgCl2, 1 mM DTT, pH 7.5; apparent Kapp from the Hill equation, K0 and ω from the McGhee and von Hippel linear lattice model; remark: listed apart in the source
# [6] = target: T2, F-actin initially saturated with Tpm3.12; experiment: as above; remark: listed apart in the source
# [7] = target: T3, F-actin initially saturated with Tpm1.1; experiment: as above; remark: listed apart in the source
binder,measurement,setting,value
"mouse cofilin-2, recombinant, GST tag removed (natural protein, cofilin-2 (muscle isoform of cofilin), mouse cDNA; MW 18,500 Da printed; The printed MW of 18,500 Da fits the whole protein) MASGVTVNDEVIKVFNDMKVRKSSTQEEIKKRKKAVLFCLSDDKRQIIVEEAKQILVGDIGDTVEDPYTSFVKLLPLNDCRYALYDATYETKESKKEDLVFIFWAPESAPLKSKMIYASSKDAIKKKFTGIKHEWQVNGLDDIKDRSTLGEKLGGSVVVSLEGKPL",stoichiometry N,[1],~1 cofilin-2 per actin
same,stoichiometry N,[2],~1 cofilin-2 per actin
same,stoichiometry N,[3],~1 cofilin-2 per actin
same,cofilin-2/actin molar ratio at 50% dissociation of Tpm1.1 from F-actin,[4],0.75 cofilin-2/actin
same,cofilin-2/actin molar ratio at 50% dissociation of Tpm3.12 from F-actin,[4],0.71 cofilin-2/actin
same,"K0 (affinity for an isolated binding site, linear lattice model)",[5],0.01 µM⁻¹
same,Ka,[5],5.7e+06 M⁻¹
same,"ω (cooperativity coefficient, linear lattice model)",[5],50
same,"K0 (affinity for an isolated binding site, linear lattice model)",[6],0.21 µM⁻¹
same,Ka,[6],5.8e+06 M⁻¹
same,"ω (cooperativity coefficient, linear lattice model)",[6],10
same,"K0 (affinity for an isolated binding site, linear lattice model)",[7],0.17 µM⁻¹
same,Ka,[7],6.3e+06 M⁻¹
same,"ω (cooperativity coefficient, linear lattice model)",[7],12
